Test results published in patent US20180177842A1 (CANIMGUIDE THERAPEUTICS, published 2018).
Ends that are not written are not given here.

T1: His-tagged P3028 (human, also: His tag, length and end not given here)
T1 construct: in solution at 0.5 ug/mL, detected with mouse anti-His antibody and rabbit anti-mouse peroxidase (rampo); also called PGE73; His-tag-P3028; not shown: His tag
T1 peptide: VFDEFKPLVEEPQNLIK


Molecular target: T1, His-tagged P3028
Assay: PEPSCAN ELISA, peptide on chip;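 note: binding detected by peroxidase ELISA with ABTS, OD405 colour imaged by CCD camera before and after staining, raw OD405 reported as rampo units, air-bubble wells scored 0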
Description: After washing, the peroxidase substrate 2,2′-azine-di-3-ethylbenzthiazoline sulfonate (ABTS) and 2 μL of 3% H2O2 were added. The binding capacity of the mAb was measured as a color development at 405 nm (optical density, OD405). The color development was quantified with a charge-coupled device (CCD)—camera and an image processing system.
The OD405-values obtained by a CCD-camera was considered as raw data values (“rampo values,” “rampo units,” or “rampo scores”). […] First the CCD-camera made a picture of the card before peroxidase coloring and then again a picture after the peroxidase coloring. […] These values were copied into an excel file and labeled as a raw data file. […] Sometimes a well can contain an air-bubble resulting in a false-positive value. If manual inspection of the cards detect an air-bubble the value are set to 0 for well.

Row | Binder | RAMPO Score [rampo units]
1 | KKLDWFFVKLSLFTER [SEQ ID NO 311] | 418
2 | KKLDTFLVKLSLFTER [SEQ ID NO 320] | 517
3 | KKLDYFFVKLSLFTER [SEQ ID NO 312] | 425
4 | KKLDTFTVKLSLFTER [SEQ ID NO 324] | 517
5 | KKLDTTFVKLSLFTER [SEQ ID NO 318] | 481
6 | KKLDTFFVKLSMFTER [SEQ ID NO 353] | 499
7 | KKLDTFFLKLSLFTER [SEQ ID NO 328] | 411
8 | KKLDTFFVKASLFTER [SEQ ID NO 332] | 426
9 | KKLDTFFVKRSLFTER [SEQ ID NO 340] | 439
10 | KKLDTFFPKLSLFTER [SEQ ID NO 329] | 456
11 | KKLDTFFVKQSLFTER [SEQ ID NO 339] | 470
12 | KKLDTFFVKSSLFTER [SEQ ID NO 341] | 351
13 | KKLDTMFVKLSLFTER [SEQ ID NO 315] | 467
14 | KKLDTFFVKMSLFTER [SEQ ID NO 336] | 460
15 | KKLDTIFVKLSLFTER [SEQ ID NO 314] | 466
16 | KKLDTFQVKLSLFTER [SEQ ID NO 322] | 511
17 | KKLDTFFVKPSLFTER [SEQ ID NO 338] | 436
18 | KKLDTFFVRLSLFTER [SEQ ID NO 331] | 374
19 | KKLDTFFVKYSLFTER [SEQ ID NO 344] | 382
20 | KKLDTFFVKLSQFTER [SEQ ID NO 355] | 651
21 | KKLDTFFVKFSLFTER [SEQ ID NO 333] | 403
22 | KKLDTFFVKLSRFTER [SEQ ID NO 356] | 483
23 | KKLDTFFVKLSSFTER [SEQ ID NO 357] | 478
24 | KKLDTFFVKLSAFTER [SEQ ID NO 350] | 462

Row | Binder | RAMPO Score [rampo units]
25 | KKLDTPFVKLSLFTER [SEQ ID NO 317] | 497
26 | KKLDTFFGKLSLFTER [SEQ ID NO 327] | 379
27 | KKLDTFFVKLHLFTER [SEQ ID NO 345] | 535
28 | KKLDTFFVKLSNFTER [SEQ ID NO 354] | 462
29 | KKLDTNFVKLSLFTER [SEQ ID NO 316] | 446
30 | KKLDTFVVKLSLFTER [SEQ ID NO 325] | 527
31 | KKLDTFFVKLQLFTER [SEQ ID NO 348] | 768
32 | KKLDTFFVKLNLFTER [SEQ ID NO 347] | 451
33 | KKLDTFFVKGSLFTER [SEQ ID NO 334] | 495
34 | KKLDTFFVKTSLFTER [SEQ ID NO 342] | 399
35 | KKLDTFFRKLSLFTER [SEQ ID NO 330] | 365
36 | KKLDTFFVKISLFTER [SEQ ID NO 335] | 415
37 | KKLDTFFFKLSLFTER [SEQ ID NO 326] | 358
38 | KKLDTVFVKLSLFTER [SEQ ID NO 319] | 547
39 | KKLDTFFVKLMLFTER [SEQ ID NO 346] | 744
40 | KKLDTFFVKVSLFTER [SEQ ID NO 343] | 658
41 | KKLDTFFVKLTLFTER [SEQ ID NO 349] | 520
42 | KKLDTAFVKLSLFTER [SEQ ID NO 313] | 575
43 | KKLDTFFVKLSHFTER [SEQ ID NO 351] | 460
44 | KKLDTFFVKNSLFTER [SEQ ID NO 337] | 365
45 | KKLDTFSVKLSLFTER [SEQ ID NO 323] | 700
46 | KKLDTFFVKLSIFTER [SEQ ID NO 352] | 456
47 | KKLDTFMVKLSLFTER [SEQ ID NO 321] | 712
